In US20220281936A1:

Molecular target: IL12 receptor on pre-activated mouse CD8+ T cells (mouse) (UniProt Q60837)
Test: cell-based or functional assay

| EC50 of STAT4 phosphorylation in pre-activated mouse CD8+ T cells (flow cytometry) [pM] | EC50 of STAT4 phosphorylation in pre-activated mouse CD8+ T cells, fold against unmodified IL12 [fold] | fold decrease in STAT4 phosphorylation in pre-activated mouse CD8+ T cells, noncleaved construct against IL12 (FIG. 3C) [fold] | Binder |
| --- | --- | --- | --- |
| 16.3 |  |  | Mouse IL12 (unmodified) (ligand) chain 1: RVIPVSGPARCLSQSRNLLKTTDDMVKTAREKLKHYSCTAEDIDHEDITRDQTSTLKTCLPLELHKNESCLATRETSSTTRGSCLPPQKTSLMMTLCLGSIYEDLKMYQTEFQAINAALQNHNHQQIILDKGMLVAIDELMQSLNHNGETLRQKPPVGEADPYRVKMKLCILLHAFSTRVVTINRVMGYLSSA chain 2: MWELEKDVYVVEVDWTPDAPGETVNLTCDTPEEDDITWTSDQRHGVIGSGKTLTITVKEFLDAGQYTCHKGGETLSHSHLLLHKKENGIWSTEILKNFKNKTFLKCEAPNYSGRFTCSWLVQRNMDLKFNIKSSSSSPDSRAVTCGMASLSAEKVTLDQRDYEKYSVSCQEDVTCPTAEETLPIELALEARQQNKYENYSTSFFIRDIIKPDPPKNLQMKPLKNSQVEVSWEYPDSWSTPHSYFSLKFFVRIQRKKEKMKETEEGCNQKGAFLVEKTSTEVQCKGGNVCVQAQDRYYNSSCSKWACVPCRVRS |
|  | 80 | 80 | IL12Rβ1-VP-IL12 (protein, part only; not given: IL12Rβ1 mask domains and linker, part only) chain, part: VPLSLYSRVIPVSGPARCLSQSRNLLKTTDDMVKTAREKLKHYSCTAEDIDHEDITRDQTSTLKTCLPLELHKNESCLATRETSSTTRGSCLPPQKTSLMMTLCLGSIYEDLKMYQTEFQAINAALQNHNHQQIILDKGMLVAIDELMQSLNHNGETLRQKPPVGEADPYRVKMKLCILLHAFSTRVVTINRVMGYLSSA MWELEKDVYVVEVDWTPDAPGETVNLTCDTPEEDDITWTSDQRHGVIGSGKTLTITVKEFLDAGQYTCHKGGETLSHSHLLLHKKENGIWSTEILKNFKNKTFLKCEAPNYSGRFTCSWLVQRNMDLKFNIKSSSSSPDSRAVTCGMASLSAEKVTLDQRDYEKYSVSCQEDVTCPTAEETLPIELALEARQQNKYENYSTSFFIRDIIKPDPPKNLQMKPLKNSQVEVSWEYPDSWSTPHSYFSLKFFVRIQRKKEKMKETEEGCNQKGAFLVEKTSTEVQCKGGNVCVQAQDRYYNSSCSKWACVPCRVRS |
|  | 80 | 80 | IL12Rβ1-LS-IL12 (protein) chain 1: QLGASGPGDGCCVEKTSFPEGASGSPLGPRNLSCYRVSKTDYECSWQYDGPEDNVSHVLWCCFVPPNHTHTGQERCRYFSSGPDRTVQFWEQDGIPVLSKVNFWVESRLGNRTMKSQKISQYLYNWTKTTPPLGHIKVSQSHRQLRMDWNVSEEAGAEVQFRRRMPTTNWTLGDCGPQVNSGSGVLGDIRGSMSESCLCPSENMAQEIQIRRRRRLSSGAPGGPWSDWSMPVCVPPEVLPQAGLLSGRSDNHGGGSGGGSRVIPVSGPARCLSQSRNLLKTTDDMVKTAREKLKHYSCTAEDIDHEDITRDQTSTLKTCLPLELHKNESCLATRETSSTTRGSCLPPQKTSLMMTLCLGSIYEDLKMYQTEFQAINAALQNHNHQQIILDKGMLVAIDELMQSLNHNGETLRQKPPVGEADPYRVKMKLCILLHAFSTRVVTINRVMGYLSSAHHHHHH chain 2: MWELEKDVYVVEVDWTPDAPGETVNLTCDTPEEDDITWTSDQRHGVIGSGKTLTITVKEFLDAGQYTCHKGGETLSHSHLLLHKKENGIWSTEILKNFKNKTFLKCEAPNYSGRFTCSWLVQRNMDLKFNIKSSSSSPDSRAVTCGMASLSAEKVTLDQRDYEKYSVSCQEDVTCPTAEETLPIELALEARQQNKYENYSTSFFIRDIIKPDPPKNLQMKPLKNSQVEVSWEYPDSWSTPHSYFSLKFFVRIQRKKEKMKETEEGCNQKGAFLVEKTSTEVQCKGGNVCVQAQDRYYNSSCSKWACVPCRVRS |
